# B1: 2M8U (parent)
# chain: TKAQVIEAFKVFDRDGNGYVTVDYLRKVLNELGDMMPADEIEEMIYEADPQNSGYVQYETFVGMLFL
# Variants of: B1
# Assay: folding stability dG (cDNA display proteolysis); higher = more stable
# Settings: PBS, room temperature
row,Variant,folding stability dG
1,TKAQVIEAFKVFDRDGNGYVTVDYLRKVLNELGDMMPADEIEEMIYEADPQNSGYVQYETFVGMLFC,3.61 kcal/mol
2,TKAQVIEAFKVFDRDGNGYVTVDYLRKVLNELGDMMPADEIEEMIYEADPQNSGYVQYETFVGMLFD,4.28 kcal/mol
3,TKAQVIEAFKVFDRDGNGYVTVDYLRKVLNELGDMMPADEIEEMIYEADPQNSGYVQYETFVGMLFA,3.98 kcal/mol
4,TKAQVIEAFKVFDRDGNGYVTVDYLRKVLNELGDMMPADEIEEMIYEADPQNSGYVQYETFVGELFL,3.29 kcal/mol
5,TKAQVIEAFKVFDRDGNGYVTVDYLRKVLNELGDMMPADEIEEMIYEADPQNSGYVQYETFVGPLFL,2.66 kcal/mol
6,TKAQVIEAFKVFDRDGNGYVTVDYLRKVLNELGDMMPADEIEEMIYEADPQNSGYVQYETFVGVLFL,3.03 kcal/mol
7,TKAQVIEAFKVFDRDGNGYVTVDYLRKVLNELGDMMPADEIEEMIYEADPQNSGYVQYETFVGCLFL,3.37 kcal/mol
8,TKAQVIEAFKVFDRDGNGYVTVDYLRKVLNELGDMMPADEIEEMIYEADPQNSGYVQYETFVGRLFL,4.29 kcal/mol
9,TKAQVIEAFKVFDRDGNGYVTVDYLRKVLNELGDMMPADEIEEMIYEADPQNSGYVQYETFVGNLFL,3.83 kcal/mol
10,TKAQVIEAFKVFDRDGNGYVTVDYLRKVLNELGDMMPADEIEEMIYEADPQNSGYVQYETFVGYLFL,3.25 kcal/mol
11,TKAQVIEAFKVFDRDGNGYVTVDYLRKVLNELGDMMPADEIEEMIYEADPQNSGYVQYETFVGKLFL,4.14 kcal/mol
12,TKAQVIEAFKVFDRDGNGYVTVDYLRKVLNELGDMMPADEIEEMIYEADPQNSGYVQYETFVGLLFL,3.74 kcal/mol
13,TKAQVIEAFKVFDRDGNGYVTVDYLRKVLNELGDMMPADEIEEMIYEADPQNSGYVQYETFVGILFL,3.15 kcal/mol
14,TKAQVIEAFKVFDRDGNGYVTVDYLRKVLNELGDMMPADEIEEMIYEADPQNSGYVQYETFVGWLFL,3.59 kcal/mol
15,TKAQVIEAFKVFDRDGNGYVTVDYLRKVLNELGDMMPADEIEEMIYEADPQNSGYVQYETFVGGLFL,3.04 kcal/mol
16,TKAQVIEAFKVFDRDGNGYVTVDYLRKVLNELGDMMPADEIEEMIYEADPQNSGYVQYETFVGTLFL,3.29 kcal/mol
17,TKAQVIEAFKVFDRDGNGYVTVDYLRKVLNELGDMMPADEIEEMIYEADPQNSGYVQYETFVGALFL,3.21 kcal/mol
18,TKAQVIEAFKVFDRDGNGYVTVDYLRKVLNELGDMMPADEIEEMIYEADPQNSGYVQYETFVGQLFL,3.53 kcal/mol
19,TKAQVIEAFKVFDRDGNGYVTVDYLRKVLNELGDMMPADEIEEMIYEADPQNSGYVQYETFVGDLFL,3.23 kcal/mol
20,TKAQVIEAFKVFDRDGNGYVTVDYLRKVLNELGDMMPADEIEEMIYEADPQNSGYVQYETFVGHLFL,3.69 kcal/mol
21,TKAQVIEAFKVFDRDGNGYVTVDYLRKVLNELGDMMPADEIEEMIYEADPQNSGYVQYETFVGFLFL,3.34 kcal/mol
22,TKAQVIEAFKVFDRDGNGYVTVDYLRKVLNELGDMMPADEIEEMIYEADPQNSGYVQYETFVGSLFL,3.08 kcal/mol
23,TKAQVIEAFKVFDRDGNGYVTVDYLRKVLNELGDMMPADEIEEMIYEADPQNSGYVQYETFVAMLFL,3.66 kcal/mol
24,TKAQVIEAFKVFDRDGNGYVTVDYLRKVLNELGDMMPADEIEEMIYEADPQNSGYVQYETFVDMLFL,4.19 kcal/mol
25,TKAQVIEAFKVFDRDGNGYVTVDYLRKVLNELGDMMPADEIEEMIYEADPQNSGYVQYETFVEMLFL,4.11 kcal/mol
26,TKAQVIEAFKVFDRDGNGYVTVDYLRKVLNELGDMMPADEIEEMIYEADPQNSGYVQYETFVQMLFL,3.47 kcal/mol
27,TKAQVIEAFKVFDRDGNGYVTVDYLRKVLNELGDMMPADEIEEMIYEADPQNSGYVQYETFVPMLFL,2.16 kcal/mol

row,Variant,folding stability dG
1,TKAQVIEAFKVFDRDGNGYVTVDYLRKVLNELGDMMPADEIEEMIYEADPQNSGYVQYETFVFMLFL,3.29 kcal/mol
2,TKAQVIEAFKVFDRDGNGYVTVDYLRKVLNELGDMMPADEIEEMIYEADPQNSGYVQYETFVWMLFL,3.31 kcal/mol
3,TKAQVIEAFKVFDRDGNGYVTVDYLRKVLNELGDMMPADEIEEMIYEADPQNSGYVQYETFVIMLFL,3.41 kcal/mol
4,TKAQVIEAFKVFDRDGNGYVTVDYLRKVLNELGDMMPADEIEEMIYEADPQNSGYVQYETFVHMLFL,3.72 kcal/mol
5,TKAQVIEAFKVFDRDGNGYVTVDYLRKVLNELGDMMPADEIEEMIYEADPQNSGYVQYETFVRMLFL,3.54 kcal/mol
6,TKAQVIEAFKVFDRDGNGYVTVDYLRKVLNELGDMMPADEIEEMIYEADPQNSGYVQYETFVVMLFL,3.42 kcal/mol
7,TKAQVIEAFKVFDRDGNGYVTVDYLRKVLNELGDMMPADEIEEMIYEADPQNSGYVQYETFVNMLFL,3.97 kcal/mol
8,TKAQVIEAFKVFDRDGNGYVTVDYLRKVLNELGDMMPADEIEEMIYEADPQNSGYVQYETFVTMLFL,3.77 kcal/mol
9,TKAQVIEAFKVFDRDGNGYVTVDYLRKVLNELGDMMPADEIEEMIYEADPQNSGYVQYETFVSMLFL,3.63 kcal/mol
10,TKAQVIEAFKVFDRDGNGYVTVDYLRKVLNELGDMMPADEIEEMIYEADPQNSGYVQYETFVLMLFL,3.36 kcal/mol
11,TKAQVIEAFKVFDRDGNGYVTVDYLRKVLNELGDMMPADEIEEMIYEADPQNSGYVQYETFVCMLFL,3.58 kcal/mol
12,TKAQVIEAFKVFDRDGNGYVTVDYLRKVLNELGDMMPADEIEEMIYEADPQNSGYVQYETFVMMLFL,3.79 kcal/mol
13,TKAQVIEAFKVFDRDGNGYVTVDYLRKVLNELGDMMPADEIEEMIYEADPQNSGYVQYETFVKMLFL,3.45 kcal/mol
14,TKAQVIEAFKVFDRDGNGYVTVDYLRKVLNELGDMMPADEIEEMIYEADPQNSGYVQYETFVYMLFL,3.48 kcal/mol
15,TKAQVIEAFKVFDRDGNGYVTVDYLRKVLNELGDMMPADEIEEMIYEADPQNSGYVQYETFVGMYFL,3.04 kcal/mol
16,TKAQVIEAFKVFDRDGNGYVTVDYLRKVLNELGDMMPADEIEEMIYEADPQNSGYVQYETFVGMNFL,2.26 kcal/mol
17,TKAQVIEAFKVFDRDGNGYVTVDYLRKVLNELGDMMPADEIEEMIYEADPQNSGYVQYETFVGMFFL,3.28 kcal/mol
18,TKAQVIEAFKVFDRDGNGYVTVDYLRKVLNELGDMMPADEIEEMIYEADPQNSGYVQYETFVGMCFL,2.6 kcal/mol
19,TKAQVIEAFKVFDRDGNGYVTVDYLRKVLNELGDMMPADEIEEMIYEADPQNSGYVQYETFVGMAFL,2.23 kcal/mol
20,TKAQVIEAFKVFDRDGNGYVTVDYLRKVLNELGDMMPADEIEEMIYEADPQNSGYVQYETFVGMMFL,3.67 kcal/mol
21,TKAQVIEAFKVFDRDGNGYVTVDYLRKVLNELGDMMPADEIEEMIYEADPQNSGYVQYETFVGMVFL,2.72 kcal/mol
22,TKAQVIEAFKVFDRDGNGYVTVDYLRKVLNELGDMMPADEIEEMIYEADPQNSGYVQYETFVGMQFL,1.84 kcal/mol
23,TKAQVIEAFKVFDRDGNGYVTVDYLRKVLNELGDMMPADEIEEMIYEADPQNSGYVQYETFVGMPFL,1.55 kcal/mol
24,TKAQVIEAFKVFDRDGNGYVTVDYLRKVLNELGDMMPADEIEEMIYEADPQNSGYVQYETFVGMDFL,1.97 kcal/mol
25,TKAQVIEAFKVFDRDGNGYVTVDYLRKVLNELGDMMPADEIEEMIYEADPQNSGYVQYETFVGMTFL,1.96 kcal/mol
26,TKAQVIEAFKVFDRDGNGYVTVDYLRKVLNELGDMMPADEIEEMIYEADPQNSGYVQYETFVGMIFL,3.11 kcal/mol
27,TKAQVIEAFKVFDRDGNGYVTVDYLRKVLNELGDMMPADEIEEMIYEADPQNSGYVQYETFVGMHFL,2.65 kcal/mol

row,Variant,folding stability dG
1,TKAQVIEAFKVFDRDGNGYVTVDYLRKVLNELGDMMPADEIEEMIYEADPQNSGYVQYETFVGMSFL,1.7 kcal/mol
2,TKAQVIEAFKVFDRDGNGYVTVDYLRKVLNELGDMMPADEIEEMIYEADPQNSGYVQYETFVGMRFL,2.22 kcal/mol
3,TKAQVIEAFKVFDRDGNGYVTVDYLRKVLNELGDMMPADEIEEMIYEADPQNSGYVQYETFVGMGFL,2.19 kcal/mol
4,TKAQVIEAFKVFDRDGNGYVTVDYLRKVLNELGDMMPADEIEEMIYEADPQNSGYVQYETFVGMEFL,1.82 kcal/mol
5,TKAQVIEAFKVFDRDGNGYVTVDYLRKVLNELGDMMPADEIEEMIYEADPQNSGYVQYETFVGMWFL,3.25 kcal/mol
6,TKAQVIEAFKVFDRDGNGYVTVDYLRKVLNELGDMMPADEIEEMIYEADPQNSGYVQYETFVGMKFL,1.94 kcal/mol
7,TKAQVIEAFKVFDRDGNGYVTVDYLRKVLNELGDMMPADEIEEMIYEADPQNSGYVQYETFVGMLQL,2.55 kcal/mol
8,TKAQVIEAFKVFDRDGNGYVTVDYLRKVLNELGDMMPADEIEEMIYEADPQNSGYVQYETFVGMLEL,2.56 kcal/mol
9,TKAQVIEAFKVFDRDGNGYVTVDYLRKVLNELGDMMPADEIEEMIYEADPQNSGYVQYETFVGMLWL,3.19 kcal/mol
10,TKAQVIEAFKVFDRDGNGYVTVDYLRKVLNELGDMMPADEIEEMIYEADPQNSGYVQYETFVGMLCL,2.86 kcal/mol
11,TKAQVIEAFKVFDRDGNGYVTVDYLRKVLNELGDMMPADEIEEMIYEADPQNSGYVQYETFVGMLLL,2.59 kcal/mol
12,TKAQVIEAFKVFDRDGNGYVTVDYLRKVLNELGDMMPADEIEEMIYEADPQNSGYVQYETFVGMLIL,2.84 kcal/mol
13,TKAQVIEAFKVFDRDGNGYVTVDYLRKVLNELGDMMPADEIEEMIYEADPQNSGYVQYETFVGMLTL,2.83 kcal/mol
14,TKAQVIEAFKVFDRDGNGYVTVDYLRKVLNELGDMMPADEIEEMIYEADPQNSGYVQYETFVGMLAL,2.62 kcal/mol
15,TKAQVIEAFKVFDRDGNGYVTVDYLRKVLNELGDMMPADEIEEMIYEADPQNSGYVQYETFVGMLSL,2.72 kcal/mol
16,TKAQVIEAFKVFDRDGNGYVTVDYLRKVLNELGDMMPADEIEEMIYEADPQNSGYVQYETFVGMLVL,2.84 kcal/mol
17,TKAQVIEAFKVFDRDGNGYVTVDYLRKVLNELGDMMPADEIEEMIYEADPQNSGYVQYETFVGMLDL,2.96 kcal/mol
18,TKAQVIEAFKVFDRDGNGYVTVDYLRKVLNELGDMMPADEIEEMIYEADPQNSGYVQYETFVGMLGL,2.57 kcal/mol
19,TKAQVIEAFKVFDRDGNGYVTVDYLRKVLNELGDMMPADEIEEMIYEADPQNSGYVQYETFVGMLRL,2.78 kcal/mol
20,TKAQVIEAFKVFDRDGNGYVTVDYLRKVLNELGDMMPADEIEEMIYEADPQNSGYVQYETFVGMLHL,2.67 kcal/mol
21,TKAQVIEAFKVFDRDGNGYVTVDYLRKVLNELGDMMPADEIEEMIYEADPQNSGYVQYETFVGMLNL,2.92 kcal/mol
22,TKAQVIEAFKVFDRDGNGYVTVDYLRKVLNELGDMMPADEIEEMIYEADPQNSGYVQYETFVGMLML,2.88 kcal/mol
23,TKAQVIEAFKVFDRDGNGYVTVDYLRKVLNELGDMMPADEIEEMIYEADPQNSGYVQYETFVGMLYL,2.71 kcal/mol
24,TKAQVIEAFKVFDRDGNGYVTVDYLRKVLNELGDMMPADEIEEMIYEADPQNSGYVQYETFVGMLKL,2.73 kcal/mol
25,TKAQVIEAFKVFDRDGNGYVTVDYLRKVLNELGDMMPADEIEEMIYEADPQNSGYVQYETFVGMLPL,2.87 kcal/mol
26,TKAQVIEAFKVFDRDGNGYVTVDYLRKVLNELGDMMPADEIEEMIYEADPQNSGYVQYETFYGMLFL,2.11 kcal/mol
